Molecular target: T1, human C1s (human, UniProt P09871 16-688)
T1 sequence: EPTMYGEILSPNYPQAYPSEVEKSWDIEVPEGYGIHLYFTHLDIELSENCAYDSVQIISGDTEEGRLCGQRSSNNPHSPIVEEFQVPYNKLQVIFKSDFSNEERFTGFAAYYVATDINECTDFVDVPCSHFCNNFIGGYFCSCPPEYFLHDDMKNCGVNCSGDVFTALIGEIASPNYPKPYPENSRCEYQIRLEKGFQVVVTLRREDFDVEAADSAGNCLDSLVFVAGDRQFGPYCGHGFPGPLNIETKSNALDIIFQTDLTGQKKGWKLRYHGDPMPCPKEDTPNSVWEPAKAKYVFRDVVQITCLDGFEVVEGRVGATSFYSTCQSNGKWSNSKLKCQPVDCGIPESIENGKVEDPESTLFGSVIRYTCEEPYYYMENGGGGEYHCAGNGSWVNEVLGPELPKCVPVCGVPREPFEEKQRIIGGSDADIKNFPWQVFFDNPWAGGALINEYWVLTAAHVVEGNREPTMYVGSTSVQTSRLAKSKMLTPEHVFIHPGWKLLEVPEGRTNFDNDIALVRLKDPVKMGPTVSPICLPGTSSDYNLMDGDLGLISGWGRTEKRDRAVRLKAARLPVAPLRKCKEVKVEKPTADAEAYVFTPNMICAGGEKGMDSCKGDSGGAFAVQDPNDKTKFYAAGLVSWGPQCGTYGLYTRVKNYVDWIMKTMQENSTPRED
Test: cell-based or functional assay

IC50 (concentration associated to 50% of the maximum effect) on serum classical complement pathway (CP) activity, WIESLAB assay, inhibitory Emax model: 6.2 µg/mL
B1: BIVV009 (antibody, human IgG4 S228P, kappa, V domains shown)
VH: EVQLVESGGGLVKPGGSLRLSCAASGFTFSNYAMSWVRQAPGKGLEWVATISSGGSHTYYLDSVKGRFTISRDNSKNTLYLQMNSLRAEDTALYYCARLFTGYAMDYWGQGTLVTVSS
VL: QIVLTQSPATLSLSPGERATMSCTASSSVSSSYLHWYQQKPGKAPKLWIYSTSNLASGVPSRFSGSGSGTDYTLTISSLQPEDFATYYCHQYYRLPPITFGQGTKLEIKR

Reference: patent US20250145696A1 (BIOVERATIV USA, published 2025)
